Assay results as given in US20240269235A1 (Gilead, published 2024).

T1: trimeric murine IL-2 receptor (IL-2Rα, IL-2Rβ, and IL-2Rγ) on CTLL-2 cells (murine, UniProt P01590 22-268; P16297 27-539; P34902 23-369)
T1 sequence (looked up) 1: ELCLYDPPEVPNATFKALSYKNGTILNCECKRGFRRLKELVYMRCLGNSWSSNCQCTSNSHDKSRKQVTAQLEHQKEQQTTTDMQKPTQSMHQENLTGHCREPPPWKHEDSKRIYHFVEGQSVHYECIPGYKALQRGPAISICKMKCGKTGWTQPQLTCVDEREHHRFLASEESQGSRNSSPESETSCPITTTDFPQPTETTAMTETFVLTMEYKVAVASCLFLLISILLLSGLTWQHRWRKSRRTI
T1 sequence (looked up) 2: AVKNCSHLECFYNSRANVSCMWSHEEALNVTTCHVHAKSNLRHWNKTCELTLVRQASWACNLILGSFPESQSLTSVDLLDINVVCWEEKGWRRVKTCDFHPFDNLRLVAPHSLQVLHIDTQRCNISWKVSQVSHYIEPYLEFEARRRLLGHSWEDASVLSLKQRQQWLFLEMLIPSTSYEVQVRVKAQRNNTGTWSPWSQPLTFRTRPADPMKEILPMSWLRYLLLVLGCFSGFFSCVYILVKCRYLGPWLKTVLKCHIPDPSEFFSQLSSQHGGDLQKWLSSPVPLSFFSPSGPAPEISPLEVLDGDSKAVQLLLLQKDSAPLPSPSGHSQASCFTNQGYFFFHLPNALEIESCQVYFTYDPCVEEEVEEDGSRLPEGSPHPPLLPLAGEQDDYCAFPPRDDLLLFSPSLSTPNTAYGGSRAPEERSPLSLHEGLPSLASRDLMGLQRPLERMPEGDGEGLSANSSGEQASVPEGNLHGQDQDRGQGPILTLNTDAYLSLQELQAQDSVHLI
T1 sequence (looked up) 3: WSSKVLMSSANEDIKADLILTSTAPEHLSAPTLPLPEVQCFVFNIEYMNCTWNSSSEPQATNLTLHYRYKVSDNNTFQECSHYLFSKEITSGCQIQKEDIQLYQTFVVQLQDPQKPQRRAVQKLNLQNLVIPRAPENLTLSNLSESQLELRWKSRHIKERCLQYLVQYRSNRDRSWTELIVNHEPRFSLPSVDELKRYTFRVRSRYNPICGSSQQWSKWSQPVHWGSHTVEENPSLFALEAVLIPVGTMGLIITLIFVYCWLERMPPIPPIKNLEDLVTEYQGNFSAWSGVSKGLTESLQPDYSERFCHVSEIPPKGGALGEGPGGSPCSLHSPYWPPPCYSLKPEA

T2: IL-2Rαβγ on KHYG-1 cells (human NK leukemia cell line that expresses IL-2Rα, β, and γ) (human, UniProt P01589 22-272; P14784 27-551; P31785 23-369)
T2 sequence (looked up) 1: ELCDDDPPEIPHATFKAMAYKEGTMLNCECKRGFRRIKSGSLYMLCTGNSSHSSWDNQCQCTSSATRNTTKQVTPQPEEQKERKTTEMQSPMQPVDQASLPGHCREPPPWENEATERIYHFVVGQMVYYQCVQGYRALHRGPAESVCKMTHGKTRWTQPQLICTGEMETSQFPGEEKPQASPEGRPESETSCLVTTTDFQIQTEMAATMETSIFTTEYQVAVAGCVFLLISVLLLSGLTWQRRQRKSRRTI
T2 sequence (looked up) 2: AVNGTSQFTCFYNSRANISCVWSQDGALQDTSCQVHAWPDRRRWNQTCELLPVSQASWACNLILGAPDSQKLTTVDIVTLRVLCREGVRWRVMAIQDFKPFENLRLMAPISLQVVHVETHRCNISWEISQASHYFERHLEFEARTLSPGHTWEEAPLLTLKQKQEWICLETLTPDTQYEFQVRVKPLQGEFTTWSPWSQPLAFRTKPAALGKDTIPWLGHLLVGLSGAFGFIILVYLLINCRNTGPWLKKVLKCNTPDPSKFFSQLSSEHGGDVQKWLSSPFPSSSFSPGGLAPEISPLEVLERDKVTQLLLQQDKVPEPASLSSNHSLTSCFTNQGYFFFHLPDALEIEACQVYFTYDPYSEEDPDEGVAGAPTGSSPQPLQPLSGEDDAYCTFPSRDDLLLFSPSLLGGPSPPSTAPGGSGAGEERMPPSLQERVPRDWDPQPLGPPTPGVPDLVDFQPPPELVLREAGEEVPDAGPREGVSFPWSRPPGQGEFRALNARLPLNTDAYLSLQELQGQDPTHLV
T2 sequence (looked up) 3: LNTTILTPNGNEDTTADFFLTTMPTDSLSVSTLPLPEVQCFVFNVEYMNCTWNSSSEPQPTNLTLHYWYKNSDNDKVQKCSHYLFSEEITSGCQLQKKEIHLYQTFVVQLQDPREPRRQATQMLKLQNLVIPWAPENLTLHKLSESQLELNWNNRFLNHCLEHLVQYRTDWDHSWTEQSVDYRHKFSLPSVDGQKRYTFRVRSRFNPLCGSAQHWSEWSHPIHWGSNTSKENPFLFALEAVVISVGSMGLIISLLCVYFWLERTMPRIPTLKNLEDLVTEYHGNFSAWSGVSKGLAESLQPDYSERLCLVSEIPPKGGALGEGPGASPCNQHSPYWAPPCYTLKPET

T3: IL-2Rα (recombinant IL-2 receptor α, R&D Systems Cat #: 223-2A/CF), biotinylated (human, UniProt P01589 22-213, limits assumed, biotinylated using sulfo-NHS-LC-LC-Biotin)
T3 construct: Bought reagent; also used here as the IL-2Rα partner of the in-silico analysis of PDB 2B5I (another construct); also called IL-2RA; CD25
T3 sequence (looked up): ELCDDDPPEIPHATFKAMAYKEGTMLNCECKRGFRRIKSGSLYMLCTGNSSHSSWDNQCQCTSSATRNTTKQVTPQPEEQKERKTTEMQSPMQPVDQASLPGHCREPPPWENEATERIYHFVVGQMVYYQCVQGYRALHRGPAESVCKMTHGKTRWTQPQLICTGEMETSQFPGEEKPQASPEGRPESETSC


Key:
[1] = target: T1, trimeric murine IL-2 receptor (IL-2Rα, …); assay: cell-based or functional assay
[2] = target: T2, IL-2Rαβγ on KHYG-1 cells (human NK …); assay: cell-based or functional assay
[3] = target: T3, IL-2Rα (recombinant IL-2 receptor α, …); assay: SPR (Biacore), CM4 chip, biotinylated receptor on neutravidin
Experimental: (§1) Fc-IL-2 variant binding data was collected on a Biacore platform using a CM4 chip. Neutravidin was immobilized using standard amine coupling methods and used to capture biotinylated receptors. The source, preparation and immobilization of biotinylated IL-2Rα and IL-2Rβγ heterodimer was as described in Example 4. Proleukin was used as a comparator. Fc-IL-2 variants and Proleukin were injected at various concentrations over these surfaces. Kinetic data obtained from these injections was used to extract kₒₙ and koff to calculate KD (KD=Koff/kₒₙ).

[4] = target: T4, IL-2Rβγ heterodimer, custom biotinylated Fc fusion protein (human IL-2Rβ 27-240-Fc-FLAG / human IL-2Rγ … (human, site-specific biotinylation at the AviTag)); assay: as above
T4 construct: Extracellular regions fused to IgG1 knob-in-hole Fc subunits with tags; also called IL-2 receptor βγ heterodimer; Fc-IL-2Rβγ
Experimental: as §1

Row | Binder | STAT5 activation of CTLL-2 cells, EC50 [1] [nM] | Proliferation of KHYG-1 NK cells, EC50 [2] [nM] | Kd [3] [nM] | Kd [4] [nM]
1 | Fc-IL-2v heterodimer 107.46 (hIL-2v_Δ1-5_F42A_E62A_C125S) (Fc fusion, hIgG4 knob-in-hole Fc heterodimer, one IL-2v on the knob chain) chain 1: ESKYGPPCPPCPAPEAAGGPSVFLFPPKPKDTLMISRTPEVTCVVVDVSQEDPEVQFNWYVDGVEVHNAKTKPREEQFNSTYRVVSVLTVLHQDWLNGKEYKCKVSNKGLPSSIEKTISKAKGQPREPQVYTLPPSQEEMTKNQVSLWCLVKGFYPSDIAVEWESNGQPENNYKTTPPVLDSDGSFFLYSRLTVDKSRWQEGNVFSCSVMHEALHNHYTQKSLSLSLGGGGGSGGGGSGGGGSGGGGSSTKKTQLQLEHLLLDLQMILNGINNYKNPKLTRMLTAKFYMPKKATELKHLQCLEEALKPLEEVLNLAQSKNFHLRPRDLISNINVIVLELKGSETTFMCEYADETATIVEFLNRWITFSQSIISTLT chain 2: ESKYGPPCPPCPAPEAAGGPSVFLFPPKPKDTLMISRTPEVTCVVVDVSQEDPEVQFNWYVDGVEVHNAKTKPREEQFNSTYRVVSVLTVLHQDWLNGKEYKCKVSNKGLPSSIEKTISKAKGQPREPQVYTLPPSQEEMTKNQVSLSCAVKGFYPSDIAVEWESNGQPENNYKTTPPVLDSDGSFFLVSRLTVDKSRWQEGNVFSCSVMHEALHNRFTQKSLSLSLGK | 25.5 | 0.235 | > 60000 | 0.069
2 | Fc-IL-2v heterodimer 113.46 (hIL-2v_Δ1-5_R38G_E62A_C125S) (Fc fusion, hIgG4 knob-in-hole Fc heterodimer, one IL-2v on the knob chain) chain 1: ESKYGPPCPPCPAPEAAGGPSVFLFPPKPKDTLMISRTPEVTCVVVDVSQEDPEVQFNWYVDGVEVHNAKTKPREEQFNSTYRVVSVLTVLHQDWLNGKEYKCKVSNKGLPSSIEKTISKAKGQPREPQVYTLPPSQEEMTKNQVSLWCLVKGFYPSDIAVEWESNGQPENNYKTTPPVLDSDGSFFLYSRLTVDKSRWQEGNVFSCSVMHEALHNHYTQKSLSLSLGGGGGSGGGGSGGGGSGGGGSSTKKTQLQLEHLLLDLQMILNGINNYKNPKLTGMLTFKFYMPKKATELKHLQCLEEALKPLEEVLNLAQSKNFHLRPRDLISNINVIVLELKGSETTFMCEYADETATIVEFLNRWITFSQSIISTLT chain 2: ESKYGPPCPPCPAPEAAGGPSVFLFPPKPKDTLMISRTPEVTCVVVDVSQEDPEVQFNWYVDGVEVHNAKTKPREEQFNSTYRVVSVLTVLHQDWLNGKEYKCKVSNKGLPSSIEKTISKAKGQPREPQVYTLPPSQEEMTKNQVSLSCAVKGFYPSDIAVEWESNGQPENNYKTTPPVLDSDGSFFLVSRLTVDKSRWQEGNVFSCSVMHEALHNRFTQKSLSLSLGK | 3.1 | 0.344 |  | 0.072
3 | Fc-IL-2v heterodimer 114.46 (hIL-2v_Δ1-5_R38G_F42A_E62A_C125S) (Fc fusion, hIgG4 knob-in-hole Fc heterodimer, one IL-2v on the knob chain) chain 1: ESKYGPPCPPCPAPEAAGGPSVFLFPPKPKDTLMISRTPEVTCVVVDVSQEDPEVQFNWYVDGVEVHNAKTKPREEQFNSTYRVVSVLTVLHQDWLNGKEYKCKVSNKGLPSSIEKTISKAKGQPREPQVYTLPPSQEEMTKNQVSLWCLVKGFYPSDIAVEWESNGQPENNYKTTPPVLDSDGSFFLYSRLTVDKSRWQEGNVFSCSVMHEALHNHYTQKSLSLSLGGGGGSGGGGSGGGGSGGGGSSTKKTQLQLEHLLLDLQMILNGINNYKNPKLTGMLTAKFYMPKKATELKHLQCLEEALKPLEEVLNLAQSKNFHLRPRDLISNINVIVLELKGSETTFMCEYADETATIVEFLNRWITFSQSIISTLT chain 2: ESKYGPPCPPCPAPEAAGGPSVFLFPPKPKDTLMISRTPEVTCVVVDVSQEDPEVQFNWYVDGVEVHNAKTKPREEQFNSTYRVVSVLTVLHQDWLNGKEYKCKVSNKGLPSSIEKTISKAKGQPREPQVYTLPPSQEEMTKNQVSLSCAVKGFYPSDIAVEWESNGQPENNYKTTPPVLDSDGSFFLVSRLTVDKSRWQEGNVFSCSVMHEALHNRFTQKSLSLSLGK | 61.2 | 0.336 | > 60000 | 0.076
